US20070128190A1 (GLENMARK PHARMACEUTICALS S A, published 2007)
Read-outs that look alike come from different tables or passages of the source.

Columns and labels:
[1] = target: T1, TMC-2206; assay: ELISA, GST fusion protein on immobilized TMC-2206
T1 construct: murine IgG1/κ secreted by hybridoma BHA2.1; labelled with Eu-N1-ITC where used as tracer; also called BHA2.1
Method: The Kᵢ assays were performed as described above in Example 2. […] Plates were sealed and coating occurred overnight at 4° C. The next morning, the plates were washed twice with TBS solution and then blocked using 200 μL of the blocking solution described above for 1 hour at room temperature with shaking. After blocking, the blocking solution was removed but the wells were not washed. Instead, a serial dilution of GST fusion protein was made, added to the wells and then incubated for 2 hours at room temperature with shaking. The wells were then aspirated and a TBS washing buffer applied for 5 minutes at room temperature. The washing step was repeated twice more before the secondary antibody was applied. The secondary antibody step consisted of Amersham's HRP-conjugated rabbit anti-GST antibody diluted 1:2000 in blocking buffer. One hundred μL of secondary antibody was added to each well and incubated at room temperature for 1.5 hours with shaking. The wells were again aspirated and washed three times with wash buffer before adding the substrate reaction mixture. One hundred μL of substrate reaction mixture (1:1 dilution of TMB kit) was then added to each well for 6 minutes. […] The reaction within the wells was then read and quantified by spectrophotometric absorption using the Molecular Dynamics plate reader and associated Softmax software, respectively. […]

[2] = target: T1, TMC-2206; assay: fusion protein competing Eu-TMC-2206 off α2β1-coated plate
Method: After incubating the sealed plates for 1 hr at 37° C. to allow binding to reach equilibrium, 2 μL samples were transferred from each well into a fresh well containing DELFIA Enhancement Solution (100 μL/well; Perkin-Elmer) for the measurement of free (unbound) label. Enhancement Solution (100 μL/well) was added to the emptied wells for the measurement of bound label. The plate was shaken (Titer Plate Shaker speed setting of 5 for 5 minutes at room temperature) and time-resolved fluorescent (TRF) intensities were read using a Victor2 multi-label plate reader (Perkin-Elmer Wallac, Boston, Mas.).
The fusion proteins were then expressed and purified as described above for the human GST-α2 I domain fusion protein. […] Therefore, these and the primate fusion proteins were further purified by size exclusion chromatography on a Sephadex 75 10/30 (GE-Amersham) column (primate) by FPLC on an Akta-Basic FPLC system (GE-Amersham) to yield a monomeric fraction. […] The Kᵢ assays were performed as described above in Example 2. […] Plates were sealed and coating occurred overnight at 4° C. The next morning, the plates were washed twice with TBS solution and then blocked using 200 μL of the blocking solution described above for 1 hour at room temperature with shaking. After blocking, the blocking solution was removed but the wells were not washed. […]

[3] = target: T1, TMC-2206; assay: as above; remark: listed apart in the source
Method: Wells in a 96 well microtiter plate were coated with platelet α2β1-integrin (custom-coated with human platelet α2β1 by GTI Inc., Wis.) and then blocked with nonfat milk. […] After concentration in prewashed MicroSep concentrators (30-kDa cutoff; Pall Life Sciences at 9500 rpm (7000×g) in a JA-20 rotor (Beckman Instruments, Inc.) for 20 minutes at 4° C.), antibodies were adjusted to 4.0 mg/mL with PBS containing a final concentration of 100 mM NaHCO₃, pH 9.3. The mAb/bicarbonate mixture (0.250 mL) was gently mixed into a vial containing 0.2 mg N¹-(p-isothiocyanatobenzyl)-diethylenetriamine-N¹,N²,N³N³-tetraacetic acid chelated with Eu³⁺ (Eu-N1-ITC; Perkin Elmer Life Sciences) and reacted overnight at 4° C. without stirring. Each labeled antibody mixture was applied to a separate PD-10 column (GE Biosciences, Piscataway, N.J.) pre-equilibrated with Running Buffer (50 mM Tris, pH 7.4 and 138 mM NaCl). Fractions (0.5 mL) were collected and assayed for total protein (Bradford reagent; Bio-Rad Laboratories, Hercules, Calif.) using a SpectraMax 384 absorbance plate reader and for europium after 1:10.000 dilution in DELFIA Enhancement Solution (Perkin-Elmer) by time-resolved fluorescence (TRF) using a Victor2 multi-label plate reader (Perkin Elmer). The fractions that were positive for both protein and Eu label were pooled and applied to new PD-10 columns and samples collected and assayed for total protein and for europium content by TRF calibrated against a europium standard solution (Perkin-Elmer) to calculate the fluor: protein ratio.

[4] = target: T1, TMC-2206; assay: as above; remark: listed apart in the source
[5] = target: T2, Humanized TMC-2206 (hIgG4/κ VH12.0/VL10.0Q); assay: fusion protein competing Eu-humanized TMC-2206 off α2β1-coated plates
T2 construct: labelled with Eu or Alexa-488 in some assays
Description: The inhibition curves were fitted with the “one site competition” model using Prism software (GraphPad, Inc.) to obtain IC₅₀ values and to calculate the Kᵢ using the equation of Cheng and Prusoff (1973) and the respective values for KD from above.
The cloning of the human, rhesus macaque, rat, and mouse α2 I domains were described in Example 12. Cynomolgus and additional rhesus monkey α2 I domains were cloned from cDNA derived from total RNA extracted from skin tissue (MediCorp, Inc., Montreal, QC).

T2 sequence (heavy, as listed by the source, chain 1 of 2): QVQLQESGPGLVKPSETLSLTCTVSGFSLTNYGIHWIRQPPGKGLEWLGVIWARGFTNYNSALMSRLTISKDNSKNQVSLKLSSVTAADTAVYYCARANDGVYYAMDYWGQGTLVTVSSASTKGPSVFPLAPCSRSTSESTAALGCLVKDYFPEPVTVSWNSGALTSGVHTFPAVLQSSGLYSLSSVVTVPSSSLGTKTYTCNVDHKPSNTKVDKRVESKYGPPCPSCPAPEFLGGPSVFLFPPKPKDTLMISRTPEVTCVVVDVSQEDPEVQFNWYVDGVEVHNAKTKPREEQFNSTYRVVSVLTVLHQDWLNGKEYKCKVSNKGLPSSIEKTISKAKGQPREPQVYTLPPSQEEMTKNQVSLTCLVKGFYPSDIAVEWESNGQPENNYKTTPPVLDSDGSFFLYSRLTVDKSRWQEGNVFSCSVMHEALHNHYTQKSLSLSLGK
T2 sequence (light, as listed by the source, chain 2 of 2): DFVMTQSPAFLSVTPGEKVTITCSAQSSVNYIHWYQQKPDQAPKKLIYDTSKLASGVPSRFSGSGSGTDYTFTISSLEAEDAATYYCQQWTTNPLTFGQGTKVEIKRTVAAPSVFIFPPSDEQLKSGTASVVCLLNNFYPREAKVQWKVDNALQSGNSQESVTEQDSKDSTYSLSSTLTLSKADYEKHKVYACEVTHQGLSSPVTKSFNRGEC

Binder	Ki [2]	Ki [5]	other results
GST-mouse α2 I domain fusion protein (other, also called murine α2 I-GST fusion protein; not shown: glutathione S-transferase tag encoded by vector pGEX-2TK) SPDFQFLTSFSPAVQACPSLVDVVVVCDESNSIYPWEAVKNFLVKFVTGLDIGPKKTQVALIQYANEPRIIFNLNDFETKEDMVQATSETRQHGGDLTNTFRAIEFARDYAYSQTSGGRPGATKVMVVVTDGESHDGSKLKTVIQQCNDDEILRFGIAVLGYLNRNALDTKNLIKEIKAIASTPTERYFFNVSDEAALLEKAGTLGEQIFSIEGTVQGGDNFQMEMSQ	–	–	fold shift in affinity [1]: > 1500 fold
GST-human α2 I domain fusion protein (other, the reverse primer ends at ...SIEGTV; also called GST-α2 I domain; hα2I; not shown: glutathione S-transferase tag encoded by vector pGEX-2TK) GSSPDFQLSASFSPATQPCPSLIDVVVVCDESNSIYPWDAVKNFLEKFVQGLDIGPTKTQVGLIQYANNPRVVFNLNTYKTKEEMIVATSQTSQYGGDLTNTFGAIQYARKYAYSAASGGRRSATKVMVVVTDGESHDGSMLKAVIDQCNHDNILRFGIAVLGYLNRNALDTKNLIKEIKAIASIPTERYFFNVSDEAALLEKAGTLGEQIFSIEGTVEFIVTD	330 pM	570 pM	Ki [3]: 180 pM; Ki [4]: 280 pM
GST-rhesus α2 I domain fusion protein (other, also called rhesus GST-α2 I; not shown: glutathione S-transferase tag encoded by vector pGEX-2TK) SPDFQLSASFSPATQPCPSLIDVVVVCDESNSIYPWDAVKNFLEKFVQGLDIGPTKTQVGLIQYANNPRVVFNLNTYKTKEEMIVATSQTSQYGGDLTNTFGAIQYARKYAYSAASGGRRSATKVMVVVTDGESHDGSMLKAVIDQCNHDNILRFGIAVLGYLNRNALDTKNLIKEIKAIASIPTERYFFNVSDEAALLEKAGTLGEQIFSIEGTV	4400 pM	400 pM	–
GST-cynomolgus α2 I domain fusion protein of Example 12 (aspartic acid at position 40) (other, also called cynomolgus monkey GST-α2 I; polymorphic cynomolgus I domain; not shown: glutathione S-transferase tag encoded by vector pGEX-2TK) SPDFQLSASFSPATQPCPSLIDVVVVCDESNSIYPWDAVDNFLEKFVQGLDIGPTKTQVGLIQYANNPRVVFNLNTYKTKEEMIVATSQTSQYGGDLTNTFGAIQYARKYAYSAASGGRRSATKVMVVVTDGESHDGSMLKAVIDQCNHDNILRFGIAVLGYLNRNALDTKNLIKEIKAIASIPTERYFFNVSDEAALLEKAGTLGEQIFSIEGTV	–	–	binding result [1]: no binding (tested: 40 nM)
